# US20240016902A1
# Tests used:
# [1] = molecular target: DBN1 (UniProt Q16643); assay: Flag-IP from HepG2 cell lysate, mass spectrometry of eluate
# [2] = molecular target: SPTBN1 (UniProt Q01082); assay: as above
# [3] = molecular target: HSPA8 (UniProt P11142); assay: as above
# [4] = molecular target: PRMT5 (UniProt O14744); assay: as above
# [5] = molecular target: FLNA (UniProt P21333); assay: as above
# [6] = molecular target: VIL1 (UniProt P09327); assay: as above
# [7] = molecular target: EIF4B (UniProt P23588); assay: as above
# [8] = molecular target: WDR77 (UniProt Q9BQA1); assay: as above
# Chain of WDR77 (Q9BQA1 whole entry): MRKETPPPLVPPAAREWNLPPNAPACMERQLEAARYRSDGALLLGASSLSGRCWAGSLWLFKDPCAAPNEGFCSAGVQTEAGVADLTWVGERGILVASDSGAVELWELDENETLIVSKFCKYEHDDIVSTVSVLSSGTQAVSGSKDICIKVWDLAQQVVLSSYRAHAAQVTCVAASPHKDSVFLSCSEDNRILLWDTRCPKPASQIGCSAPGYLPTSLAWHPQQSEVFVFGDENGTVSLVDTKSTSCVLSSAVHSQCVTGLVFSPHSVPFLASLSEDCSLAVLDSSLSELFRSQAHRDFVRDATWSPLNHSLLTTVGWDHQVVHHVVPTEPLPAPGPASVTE
# [9] = molecular target: SPTAN1 (accession Q13813-2) (UniProt Q13813); assay: as above
# [10] = molecular target: POTEE (UniProt Q6S8J3); assay: as above
# [11] = molecular target: TUBB (UniProt P07437); assay: Flag-IP from HeLa cell lysate, mass spectrometry of eluate
# [12] = molecular target: TUBA1C (UniProt Q9BQE3); assay: as above
# [13] = molecular target: TUBA1A (UniProt Q71U36); assay: as above
# [14] = molecular target: SPTBN1 (UniProt Q01082); assay: as above
# [15] = molecular target: PRMT5 (UniProt O14744); assay: as above
# [16] = molecular target: FLNA (UniProt P21333); assay: as above
# [17] = molecular target: HSPA1A (UniProt P0DMV8); assay: as above
# [18] = molecular target: SPTAN1 (accession Q13813) (Homo sapiens (Human)) (UniProt Q13813); assay: as above
# [19] = molecular target: EIF4B (UniProt P23588); assay: as above
# [20] = molecular target: WDR77 (UniProt Q9BQA1); assay: as above
# [21] = molecular target: TUBB4B (UniProt P68371); assay: as above
# Chain of TUBB4B (P68371 whole entry): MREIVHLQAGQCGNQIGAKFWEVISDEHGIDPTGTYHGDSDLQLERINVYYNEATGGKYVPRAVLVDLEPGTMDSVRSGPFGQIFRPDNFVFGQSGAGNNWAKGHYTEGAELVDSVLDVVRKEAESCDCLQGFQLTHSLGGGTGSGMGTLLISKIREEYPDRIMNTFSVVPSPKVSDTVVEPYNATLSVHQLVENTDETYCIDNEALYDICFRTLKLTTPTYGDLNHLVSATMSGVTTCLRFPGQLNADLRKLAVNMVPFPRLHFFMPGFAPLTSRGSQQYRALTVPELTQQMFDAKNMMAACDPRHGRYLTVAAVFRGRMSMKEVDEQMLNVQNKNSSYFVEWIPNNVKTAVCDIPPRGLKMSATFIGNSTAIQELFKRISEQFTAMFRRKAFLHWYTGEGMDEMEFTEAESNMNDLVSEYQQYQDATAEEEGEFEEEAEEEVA
# [22] = molecular target: SPTAN1 (accession Q13813-3) (UniProt Q13813); assay: Flag-IP from HepG2 cell lysate, mass spectrometry of eluate
# [23] = molecular target: TUBB (UniProt P07437); assay: as above
# [24] = molecular target: TUBA1C (UniProt Q9BQE3); assay: as above
# [25] = molecular target: TUBB4B (UniProt P68371); assay: as above
# [26] = molecular target: TUBA1B (UniProt P68363); assay: as above
# Chain of TUBA1B (P68363 whole entry): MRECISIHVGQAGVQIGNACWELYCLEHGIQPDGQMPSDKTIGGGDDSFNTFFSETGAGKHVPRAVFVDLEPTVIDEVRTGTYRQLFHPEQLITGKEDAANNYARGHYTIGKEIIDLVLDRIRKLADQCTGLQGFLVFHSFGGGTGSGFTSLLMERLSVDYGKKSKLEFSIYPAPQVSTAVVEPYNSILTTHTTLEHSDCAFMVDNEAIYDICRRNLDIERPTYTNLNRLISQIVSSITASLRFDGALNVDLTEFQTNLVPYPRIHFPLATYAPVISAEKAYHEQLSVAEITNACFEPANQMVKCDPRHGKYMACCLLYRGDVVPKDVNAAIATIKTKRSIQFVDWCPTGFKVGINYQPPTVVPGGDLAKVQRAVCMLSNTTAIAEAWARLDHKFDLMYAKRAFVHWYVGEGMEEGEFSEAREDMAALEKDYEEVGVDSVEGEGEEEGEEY
# [27] = molecular target: KRT1 (UniProt P04264); assay: Flag-IP from HeLa cell lysate, mass spectrometry of eluate
# [28] = molecular target: HSPA8 (UniProt P11142); assay: as above
# [29] = molecular target: SPTAN1 (accession Q13813-2) (UniProt Q13813); assay: as above
# [30] = molecular target: TUBA1B (UniProt P68363); assay: as above
# Chain of FLNA (P21333 2-2647 limits assumed): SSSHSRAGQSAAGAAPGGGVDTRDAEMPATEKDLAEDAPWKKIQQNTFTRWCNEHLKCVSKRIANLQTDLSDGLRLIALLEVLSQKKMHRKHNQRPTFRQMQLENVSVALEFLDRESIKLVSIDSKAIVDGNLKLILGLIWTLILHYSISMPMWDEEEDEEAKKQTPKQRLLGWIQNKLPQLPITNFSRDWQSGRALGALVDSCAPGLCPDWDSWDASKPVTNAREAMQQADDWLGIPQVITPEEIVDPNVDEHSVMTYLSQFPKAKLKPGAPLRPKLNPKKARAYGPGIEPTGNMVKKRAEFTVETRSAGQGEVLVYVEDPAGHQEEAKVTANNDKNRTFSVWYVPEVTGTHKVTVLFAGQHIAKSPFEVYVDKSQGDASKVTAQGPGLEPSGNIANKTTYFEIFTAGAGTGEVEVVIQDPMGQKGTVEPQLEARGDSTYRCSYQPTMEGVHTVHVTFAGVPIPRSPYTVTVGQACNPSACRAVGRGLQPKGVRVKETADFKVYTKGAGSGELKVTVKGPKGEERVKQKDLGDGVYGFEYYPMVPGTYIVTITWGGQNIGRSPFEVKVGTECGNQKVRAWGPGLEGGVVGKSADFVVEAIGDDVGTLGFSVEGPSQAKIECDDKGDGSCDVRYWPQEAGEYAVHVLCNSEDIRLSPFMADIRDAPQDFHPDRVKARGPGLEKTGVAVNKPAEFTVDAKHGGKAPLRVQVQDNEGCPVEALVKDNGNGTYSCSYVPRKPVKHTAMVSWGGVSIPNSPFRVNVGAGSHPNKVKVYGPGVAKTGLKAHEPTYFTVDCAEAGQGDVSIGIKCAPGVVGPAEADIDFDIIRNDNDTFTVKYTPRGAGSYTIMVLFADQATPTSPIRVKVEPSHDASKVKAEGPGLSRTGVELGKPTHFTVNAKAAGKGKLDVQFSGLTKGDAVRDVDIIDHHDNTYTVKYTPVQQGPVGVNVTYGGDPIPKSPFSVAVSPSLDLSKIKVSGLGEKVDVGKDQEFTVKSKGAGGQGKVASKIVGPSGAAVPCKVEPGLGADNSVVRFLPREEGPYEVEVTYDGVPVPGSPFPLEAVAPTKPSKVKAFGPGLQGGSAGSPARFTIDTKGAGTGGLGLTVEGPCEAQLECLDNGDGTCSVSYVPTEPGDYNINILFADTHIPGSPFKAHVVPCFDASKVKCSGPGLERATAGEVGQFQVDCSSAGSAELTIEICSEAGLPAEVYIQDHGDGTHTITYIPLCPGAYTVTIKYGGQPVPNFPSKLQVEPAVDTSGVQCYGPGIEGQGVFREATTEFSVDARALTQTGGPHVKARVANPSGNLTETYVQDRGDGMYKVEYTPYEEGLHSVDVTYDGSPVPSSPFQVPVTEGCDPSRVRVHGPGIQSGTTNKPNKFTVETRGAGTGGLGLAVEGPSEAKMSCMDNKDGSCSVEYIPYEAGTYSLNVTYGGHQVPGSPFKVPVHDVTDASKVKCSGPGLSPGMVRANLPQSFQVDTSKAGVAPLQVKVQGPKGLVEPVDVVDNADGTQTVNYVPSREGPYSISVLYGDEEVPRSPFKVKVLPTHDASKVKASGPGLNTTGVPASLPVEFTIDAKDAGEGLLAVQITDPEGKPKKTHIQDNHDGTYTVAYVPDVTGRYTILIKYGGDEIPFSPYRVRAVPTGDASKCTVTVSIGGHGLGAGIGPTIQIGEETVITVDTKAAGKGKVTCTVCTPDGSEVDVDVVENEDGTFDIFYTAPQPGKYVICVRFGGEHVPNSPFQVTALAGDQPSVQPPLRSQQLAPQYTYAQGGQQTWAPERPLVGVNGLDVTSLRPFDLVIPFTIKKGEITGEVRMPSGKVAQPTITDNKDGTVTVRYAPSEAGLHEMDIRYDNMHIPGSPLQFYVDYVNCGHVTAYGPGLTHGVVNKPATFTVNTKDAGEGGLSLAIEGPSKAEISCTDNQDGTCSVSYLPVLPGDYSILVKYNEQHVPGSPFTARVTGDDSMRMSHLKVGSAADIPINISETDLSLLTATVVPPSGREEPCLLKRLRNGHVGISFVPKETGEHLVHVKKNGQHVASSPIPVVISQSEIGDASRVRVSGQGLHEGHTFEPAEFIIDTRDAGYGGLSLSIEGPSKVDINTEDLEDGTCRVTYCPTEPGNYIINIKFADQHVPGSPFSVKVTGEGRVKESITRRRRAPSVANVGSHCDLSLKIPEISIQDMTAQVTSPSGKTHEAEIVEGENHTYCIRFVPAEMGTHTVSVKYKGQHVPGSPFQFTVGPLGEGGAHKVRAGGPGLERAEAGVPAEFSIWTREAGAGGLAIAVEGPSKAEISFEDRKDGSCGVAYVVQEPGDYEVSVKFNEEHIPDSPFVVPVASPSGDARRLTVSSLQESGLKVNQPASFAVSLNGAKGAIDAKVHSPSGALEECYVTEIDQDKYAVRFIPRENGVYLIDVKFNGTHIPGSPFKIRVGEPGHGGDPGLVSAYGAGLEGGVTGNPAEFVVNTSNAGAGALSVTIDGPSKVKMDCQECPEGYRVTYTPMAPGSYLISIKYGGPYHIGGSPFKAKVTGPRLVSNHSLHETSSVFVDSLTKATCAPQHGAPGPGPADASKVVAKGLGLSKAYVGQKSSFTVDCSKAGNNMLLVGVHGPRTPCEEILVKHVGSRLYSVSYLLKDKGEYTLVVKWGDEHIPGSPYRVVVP
# Chain of Flag-AtRDR1 (Arabidopsis thaliana RNA-dependent RNA polymerase 1 with Flag tag) (Q9LQV2 whole entry): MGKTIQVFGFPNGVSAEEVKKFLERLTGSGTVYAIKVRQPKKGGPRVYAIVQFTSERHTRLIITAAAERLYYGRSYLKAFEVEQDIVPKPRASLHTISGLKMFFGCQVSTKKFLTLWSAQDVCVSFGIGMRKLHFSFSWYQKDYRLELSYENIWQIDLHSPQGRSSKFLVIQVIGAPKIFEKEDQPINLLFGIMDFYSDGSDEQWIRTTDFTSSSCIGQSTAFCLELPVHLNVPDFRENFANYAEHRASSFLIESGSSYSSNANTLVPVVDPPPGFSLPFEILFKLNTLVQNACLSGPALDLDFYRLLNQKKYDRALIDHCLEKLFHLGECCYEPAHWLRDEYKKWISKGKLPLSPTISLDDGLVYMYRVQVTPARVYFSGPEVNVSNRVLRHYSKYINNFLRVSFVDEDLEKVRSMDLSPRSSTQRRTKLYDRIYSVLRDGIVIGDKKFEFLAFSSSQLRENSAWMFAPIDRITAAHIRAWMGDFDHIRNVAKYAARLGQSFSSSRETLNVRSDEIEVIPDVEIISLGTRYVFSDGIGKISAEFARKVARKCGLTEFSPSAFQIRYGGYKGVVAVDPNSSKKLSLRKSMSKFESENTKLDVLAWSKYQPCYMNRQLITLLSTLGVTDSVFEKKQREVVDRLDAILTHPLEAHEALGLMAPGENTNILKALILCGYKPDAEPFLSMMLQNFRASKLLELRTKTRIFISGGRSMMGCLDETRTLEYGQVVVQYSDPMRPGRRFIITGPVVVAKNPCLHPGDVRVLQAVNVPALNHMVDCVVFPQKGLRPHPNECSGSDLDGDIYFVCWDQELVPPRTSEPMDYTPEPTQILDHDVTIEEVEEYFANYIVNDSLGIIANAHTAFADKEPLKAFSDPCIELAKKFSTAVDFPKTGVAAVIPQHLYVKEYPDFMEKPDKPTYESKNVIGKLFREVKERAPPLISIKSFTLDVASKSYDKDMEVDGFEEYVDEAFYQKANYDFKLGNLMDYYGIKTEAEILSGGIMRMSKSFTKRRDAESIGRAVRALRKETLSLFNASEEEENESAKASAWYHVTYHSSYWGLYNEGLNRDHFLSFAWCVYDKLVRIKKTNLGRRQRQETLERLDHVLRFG
substance,measurement,setting,value
Flag-AtRDR1 (Arabidopsis thaliana RNA-dependent RNA polymerase 1 with Flag tag) (from UniProt Q9LQV2 1-1107) (enzyme),Coverage (%),[1],36%
same,Coverage (%),[2],45%
same,Length of peptide,[2],72
same,Coverage (%),[3],56%
same,Length of peptide,[3],27
same,Coverage (%),[4],59%
same,Length of peptide,[4],31
same,Coverage (%),[5],27%
same,Length of peptide,[5],38
same,Coverage (%),[6],46%
same,Length of peptide,[6],26
same,Coverage (%),[7],37%
same,Length of peptide,[7],17
same,Coverage (%),[8],66%
same,Coverage (%),[9],44%
same,Length of peptide,[9],83
same,Coverage (%),[10],9%
same,Length of peptide,[10],7
same,Coverage (%),[11],29%
same,Length of peptide,[11],10
same,Coverage (%),[12],31%
same,Length of peptide,[12],10
same,Coverage (%),[13],36%
same,Coverage (%),[14],12%
same,Coverage (%),[15],29%
same,Length of peptide,[15],12
same,Coverage (%),[16],20%
same,Length of peptide,[16],36
same,Coverage (%),[17],17%
same,Length of peptide,[17],10
same,Coverage (%),[18],16%
same,Length of peptide,[18],29
same,Coverage (%),[19],33%
same,Length of peptide,[19],20
same,Coverage (%),[20],44%
same,Length of peptide,[20],10
same,Coverage (%),[21],25%
same,Length of peptide,[21],9
"Flag-OsRDR1 (rice, Oryza sativa, RNA-dependent RNA polymerase 1 with Flag tag) (from UniProt Q0DXS3 1-740) (enzyme)",Coverage (%),[22],47%
same,Length of peptide,[22],85
same,Coverage (%),[23],66%
same,Length of peptide,[23],24
same,Coverage (%),[24],55%
same,Length of peptide,[24],17
same,Coverage (%),[2],48%
same,Length of peptide,[2],81
same,Coverage (%),[3],68%
same,Length of peptide,[3],34
same,Coverage (%),[4],61%
same,Length of peptide,[4],31
same,Coverage (%),[5],32%
same,Length of peptide,[5],50
same,Coverage (%),[8],64%
same,Length of peptide,[8],15
same,Coverage (%),[25],66%
same,Coverage (%),[10],11%
same,Length of peptide,[10],9
same,Coverage (%),[26],62%
same,Length of peptide,[26],19
same,Coverage (%),[27],32%
same,Length of peptide,[27],14
same,Coverage (%),[11],42%
same,Length of peptide,[11],15
same,Coverage (%),[12],35%
same,Length of peptide,[12],11
same,Coverage (%),[14],10%
same,Length of peptide,[14],16
same,Coverage (%),[28],36%
same,Length of peptide,[28],17
same,Coverage (%),[15],37%
same,Length of peptide,[15],15
same,Coverage (%),[16],12%
same,Length of peptide,[16],20
same,Coverage (%),[17],26%
same,Length of peptide,[17],13
same,Coverage (%),[19],26%
same,Length of peptide,[19],9
same,Coverage (%),[29],9%
same,Length of peptide,[29],16
same,Coverage (%),[21],38%
same,Length of peptide,[21],14
same,Coverage (%),[30],40%
same,Length of peptide,[30],12
